How the values were obtained:
Assay in all cases: ELISA, target coated at 1 μg/ml, TsM titrated from 10 μg/ml
CD19-CD3-GITRL TsM_M = target: T1, CD19-CD3-GITRL TsM_M
T1 construct: CHO-S expressed, N-glycosylated monomer; also called 单体形式的抗CD19/抗CD3/GITRL三特异性分子

CD19-CD3-GITRL TsM_D = target: T2, CD19-CD3-GITRL TsM_D
T2 construct: Disulfide-linked, glycosylated dimer; also called 二聚体形式的抗CD19/抗CD3/GITRL三特异性分子

CD19-CD3-4-1BBL TsM_M = target: T3, CD19-CD3-4-1BBL TsM_M
T3 construct: monomer confirmed by SDS-PAGE and mass spectrometry; also called 单体形式的抗CD19/抗CD3/4-1BBL三特异性分子; 单体形式的TiTE三特异分子

CD19-CD3-CD70 TsM_D = target: T4, CD19-CD3-CD70 TsM_D
T4 construct: Disulfide-linked, glycosylated dimer; also called 二聚体形式的抗CD19/抗CD3/CD70三特异性分子

CD19-CD3-4-1BBL TsM_D = target: T5, CD19-CD3-4-1BBL TsM_D
T5 construct: Two chains joined by disulfide bonds of the IgD hinge (dimer by non-reducing SDS-PAGE and mass spectrometry); also called 二聚体形式的抗CD19/抗CD3/4-1BBL三特异性分子; 二聚体形式的TiTE三特异分子

CD19-CD3-B7RP-1 TsM_M = target: T6, CD19-CD3-B7RP-1 TsM_M
T6 construct: CHO-S expressed, N-glycosylated monomer; also called 单体形式的抗CD19/抗CD3/B7RP-1三特异性分子

CD19-CD3-B7RP-1 TsM_D = target: T7, CD19-CD3-B7RP-1 TsM_D
T7 construct: Disulfide-linked, glycosylated dimer; also called 二聚体形式的抗CD19/抗CD3/B7RP-1三特异性分子

CD19-CD3-OX40L TsM_M = target: T8, CD19-CD3-OX40L TsM_M
T8 construct: CHO-S expressed, N-glycosylated monomer; also called 单体形式的抗CD19/抗CD3/OX40L三特异性分子

CD19-CD3-OX40L TsM_D = target: T9, CD19-CD3-OX40L TsM_D
T9 construct: Disulfide-linked, glycosylated dimer; also called 二聚体形式的抗CD19/抗CD3/OX40L三特异性分子

CD19-CD3-CD70 TsM_M = target: T10, CD19-CD3-CD70 TsM_M
T10 construct: CHO-S expressed, N-glycosylated monomer; also called 单体形式的抗CD19/抗CD3/CD70三特异性分子

Measured: binding result

B1: 人类GITR-hFc融合蛋白 (Fc fusion)
chain: QRPTGGPGCGPGRLLLGTGTDARCCRVHTTRCCRDYPGEECCSEWDCMCVQPEFHCGDPCCTTCRHHPCPPGQGVQSQGKFSFGFQCIDCASGTFSGGHEGHCKPWTDCTQFGFLTVFPGNKTHNAVCVPGSPPAE
notes: Bought from 吴江近岸蛋白质科技有限公司; also called 重组蛋白GITR-hFc; T细胞正共刺激分子GITR-hFc; not shown: human Fc (hFc)
binds: CD19-CD3-GITRL TsM_M | CD19-CD3-GITRL TsM_D

B2: 人类CD19-hFc融合蛋白 (Fc fusion, human, UniProt P15391 20-291, looked up)
chain: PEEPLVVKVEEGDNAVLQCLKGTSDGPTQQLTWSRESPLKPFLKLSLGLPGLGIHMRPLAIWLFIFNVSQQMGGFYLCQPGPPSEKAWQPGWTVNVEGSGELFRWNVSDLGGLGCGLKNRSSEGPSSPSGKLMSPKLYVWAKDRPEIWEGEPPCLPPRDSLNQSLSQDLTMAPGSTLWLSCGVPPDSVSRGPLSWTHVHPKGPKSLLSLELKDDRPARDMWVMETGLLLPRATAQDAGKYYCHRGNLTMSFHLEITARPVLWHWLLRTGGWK
notes: Bought from 吴江近岸蛋白质科技有限公司; Coated at 1 μg/ml in ELISA; also called 重组抗原CD19-hFc; 抗原CD19-hFc; not shown: human Fc (hFc)
binds: all assays above

B3: 人类ICOS-hFc融合蛋白 (Fc fusion)
chain: EINGSANYEMFIFHNGGVQILCKYPDIVQQFKMQLLKGGQILCDLTKTKGSGNTVSIKSLKFCHSQLSNNSVSFFLYNLDHSHANYYFCNLSIFDPPPFKVTLTGGYLHIYESQLCCQLK
notes: Bought from 吴江近岸蛋白质科技有限公司; also called 重组蛋白ICOS-hFc; T细胞正共刺激分子ICOS-hFc; not shown: human Fc (hFc)
binds: CD19-CD3-B7RP-1 TsM_M | CD19-CD3-B7RP-1 TsM_D

— CN108264558A (SHANGHAI NOVOPROTEIN BIOTECHNOLOGY CO LTD, dated 2018)
